Laboratory results taken from the DeepSol protein solubility set.

Test: soluble on expression in E. coli; label from the status in PepcDB or PDB records

Sequence	soluble on expression in E. coli
MDEEDPINPCFQTISMGGGYVSGEIYRSDFEINDDARCIITTQSSAKAYKTVDGKTSEQHTNITLGKNSILEYISDNVIVYEDGKFAQFNNFKMDSSATLIYTECFGPGSPHGSAYQYEKMYLNTKIYYDDKLVLFDNLKFQPRKNDESAFGIMDGYHYCGTMIVINQQVIEDDVIKIRDLVKEKYPDMDMIFGVSRMDIPGLGLRVLANTYYHVEKINAVAHDYFRRKLFNKKPLILRKPLEHHHHHH	not soluble
PETVCWGHVEEVELINDGSGLGFGIVGGKTSGVVVRTIVPGGLADRDGRLQTGDHILKIGGTNVQGMTSEQVAQVLRNCGNSVRMLVARDPAGDISVT	soluble
FNGHSLKAYPRMTFQLTIKGGNEMNYRIEEKEAFRIVGIKKRVPIIFKGINPEIASMWESLDEKAINKLKELSNVAPSGLISASTNFSEGRTEENGELDHYIGAATTKRCPDNFSRLEVPASTWAVFESIGPFPDTLQEVWGRIYSEWFPSSNYEQIEGPEILWNEHKDVTSPSFKSEIWIPITKK	not soluble
MTAMLSMACRRAVRAGAHCDEGGHVKAFDYPDSMNNKPVPIVLRRTSIGLILFILPAMLIGCSRVPVKTQPKPASVNVWPLTTPANPEAANEVVMRALSLVGTPYRFGGNTPESGFDCSGLVSYVYRDALDLRLPRTSYELAAVQGPKIDAEQLTTGDLVFFGSARSVTHVGIYLSEGRFVHAPSSGGTVRLDRLDTPYWRDHYTGAKRVLRIIEAKVSMVFTDKCHLTFTHYGEESAQAALHTYFNIGDINQVEVQGLPETCFNSLNQQQENVPSPRHISENVDCIYSAENMQNQILDKSFNRTIALHHHNASQFVLWNPWHKKTSGMSETGYQKMLCLETARIHHLLEFGESLSVEISLKG	soluble
MASGAGGVGGGGGGKIRTRRCHQGPIKPYQQGRQQHQGILSRVTESVKNIVPGWLQRYFNKNEDVCSCSTDTSEVPRWPENKEDHLVYADEESSNITDGRITPEPAVSNTEEPSTTSTASNYPDVLTRPSLHRSHLNFSMLESPALHCQPSTSSAFPIGSSGFSLVKEIKDSTSQHDDDNISTTSGFSSRASDKDITVSKNTSLPPLWSPEAERSHSLSQHTATSSKKPAFNLSAFGTLSPSLGNSSVLKTSQLGDSPFYPGKTTYGGAAAAVRQSKLRNTPYQAPVRRQMKAKQLSAQSYGVTSSTARRILQSLEKMSSPLADAKRIPSIVSSPLNSVDSQYPPVQRLMTPKPVSIATNRSVYFKPSLTPSGEFRKTNQRIDKKCSTGYEKNMTPGQNREQRESGFSYPNFSLPAANGLSSGVGGGGGKMRRERTRFVASKPLEEEEMEVPVLPKISLPITSSSLPTFNFSSPEITTSSPSPINSSQALTNKVQMTSPSSTGSPMFKFSSPIVKSTEANVLPPSSIGFTFSVPVAKTAELSGSSSTLEPIISSSAHHVTTVNSTNCKKTPPEDCEGPFRPAEILKEGSVLDILKSPGFASPKIDSVAAQPTATSPVVYTRPAISSFSSSGIGFGESLKAGSSWQCDTCLLQNKVTDNKCIACQAAKLSPRDTAKQTGIETPNKSGKTTLSASGTGFGDKFKPVIGTWDCDTCLVQNKPEAIKCVACETPKPGTCVKRALTLTVVSESAETMTASSSSCTVTTGTLGFGDKFKRPIGSWECSVCCVSNNAEDNKCVSCMSEKPGSSVPTSSSSTVPVSLPSGGSLGLEKFKKPEGSWDCELCLVQNKADSTKCLACESAKPGTKSGFKGFDTSSSSSNSAASSSFKFGVSSSSSGPSQTLTSTGNFKFGDQGGFKIGVSSDSGSINPMSEGFKFSKPIGDFKFGVSSESKPEEVKKDSKNDNFKFGLSSGLSNPVSLTPFQFGVSNLGQEEKKEELPKSSSAGFSFGTGVINSTPAPANTIVTSENKSSFNLGTIETKSASVAPFTCKTSEAKKEEMPATKGGFSFGNVEPASLPSASVFVLGRTEEKQQEPVTSTSLVFGKKADNEEPKCQPVFSFGNSEQTKDENSSKSTFSFSMTKPSEKESEQPAKATFAFGAQTSTTADQGAAKPVFSFLNNSSSSSSTPATSAGGGIFGSSTSSSNPPVATFVFGQSSNPVSSSAFGNTAESSTSQSLLFSQDSKLATTSSTGTAVTPFVFGPGASSNNTTTSGFGFGATTTSSSAGSSFVFGTGPSAPSASPAFGANQTPTFGQSQGASQPNPPGFGSISSSTALFPTGSQPAPPTFGTVSSSSQPPVFGQQPSQSAFGSGTTPNSSSAFQFGSSTTNFNFTNNSPSGVFTFGANSSTPAASAQPSGSGGFPFNQSPAAFTVGSNGKNVFSSSGTSFSGRKIKTAVRRRK	soluble
MGSDKIHHHHHHMRITIVTIFPEMVEVIKKYGVIARAVERGIVEINVENLRDYTTDRHRTVDDYQYGGGYGMVMKPEPFFRFYESYVEKYGKPYVILTSPQGRIFNYKIAEELSKKDDIVIFCGRYEGIDERVMSIVDDEISIGDYILTGGELPAMVITDAVVRLVPGVVERESVERESFHQGLLDHPVYTRPYEYKGMKVPDVLLSGDHEKVELWRRKESIKKTLAKRPDLFLAKELDEMDKLAIIELFRELMEKC	not soluble
MGSKGVYQYHWQSHNVKHSGVDDMVLLSKITENSIVENLKKRYMDDYIFTYIGSVLISVNPFKQMPYFGEKEIEMYQGAAQYENPPHIYALADNMYRNMIIDRENQCVIISGESGAGKTVAAKYIMSYISRVSGGGTKVQHVKDIILQSNPLLEAFGNAKTVRNNNSSRFGKYFEIQFSPGGEPDGGKISNFLLEKSRVVMRNPGERSFHIFYQLIEGASAEQKHSLGITSMDYYYYLSLSGSYKVDDIDDRREFQETLHAMNVIGIFAEEQTLVLQIVAGILHLGNISFKEVGNYAAVESEEFLAFPAYLLGINQDRLKEKLTSRQMDSKWGGKSESIHVTLNVEQACYTRDALAKALHARVFDFLVDSINKAMEKDHEEYNIGVLDIYGFEIFQKNGFEQFCINFVNEKLQQIFIELTLKAEQEEYVQEGIRWTPIEYFNNKIVCDLIENKVNPPGIMSILDDVCATMHAVGEGADQTLLQKLQMQIGSHEHFNSWNQGFIIHHYAGKVSYDMDGFCERNRDVLFMDLIELMQSSELPFIKSLFPENLQADKKGRPTTAGSKIKKQANDLVSTLMKCTPHYIRCIKPNETKKPRDWEESRVKHQVEYLGLKENIRVRRAGYAYRRIFQKFLQRYAILTKATWPSWQGEEKQGVLHLLQSVNMDSDQFQLGRSKVFIKAPESLFLLEEMRERKYDGYARVIQKSWRKFVARKKYVQMREEASDLLLNKKERRRNSINRNFIGDYIGMEEHPELQQFVGKREKIDFADTVTKYDRRFKGVKRDLLLTPKCLYLIGREKVKQGPDKGLVKEVLKRKIEIERILSVSLSTMQDDIFILHEQEYDSLLESVFKTEFLSLLAKRYEEKTQKQLPLKFSNTLELKLKKENWGPWSAGGSRQVQFHQGFGDLAVLKPSNKVLQVSIGPGLPKNSRPTRRNTTQNTGYSSGTQNANYPVRAAPPPPGYHQNGVIRNQYVPYPHAPGSQRSNQKSLYTSMARPPLPRQQSTSSDRVSQTPESLDFLKVPDQGAAGVRRQTTSRPPPAGGRPKPQPKPKPQVPQCKALYAYDAQDTDELSFNANDIIDIIKEDPSGWWTGRLRGKQGLFPNNYVTKI	soluble
MGSDKIHHHHHHMRESPLILPFDPAGIALDRSRGLSQQLYQALRARVLDGRLSSGTRLPATRDLAAMLALSRNSVVRAYDQLYAEGFIESRVGDGTYVSRLPKLSTQVSTGLSLGLSTGLSTFRQENTEDLSSGRHISAPLQRLKNNHLPPPRSGLPRAFRVGIPAFDLFPFDVWAKLQAGFWRNPSPAQLGYGDPAGEPALRDLIAAYLRRSRGLSCTAEQIVITSGAQQAISLCAQLLLQPGDGVAVENPGYRAAAHAFTLAGGRVCGVPVDEDGLDCGRLEQLTDCRLTYVTPAHQYPTGVTMSLARRLALLAWAERSDGWIIEDDYDGEYRYSGAPLAPLAALDRHGRVLYVGTFGKIAFPALRLGYLVLPSKLVQAFSQGRAIAVRHSEVSSQCVMAEFMARGHFQRHIRRMRKAALKRRDVLKAGWPVDIPGLGAMPEVAAGLHVKVNVDNFAREQELVAKAEAVEVEVTPLSNFWLADCEVPVDKRAGLVLGFAAVPEGEIAEALMKLRKVWRK	not soluble
PSVQVPQSTILYASDGSKLGETNYGEKRYWVPLKDMNPTIVKATVAIEDQNFYDHHGFDYKRMAGAALADLKAFAKVQGASTITQQYARNLYLEHDKTWKRKWNEAFYTIRLEQNYSKDEILEGYLNTIYYGHGAYGIEAASRLYFGKHAKNLTDAEAALLAGIPKGPSGY	not soluble
MPVKPASPRSHPGCPELTHERYCDAQAKAEDARYRKYQRDPKINRRYGSRWRKIRAAYVAAHPLCEDCLEAGRYTPVQEVHHVLPIEHGGTHNFDNLQSLCKPCHSRQSALDDDRWRQQPRVYTYLEHHHHHH	soluble
MPGTEKTQHISLTTQVENRLKHQLSIGALKPGARLITKNIAQELGVSITPVREALLRLVSSSALAVAPAQAFMVPEISLESLLEINTIRTALEEMAVVAAAGKITPDREQTLNALLDEFQQALESGVMEKILLANRAFRFEIYHYADMPTLYAMIEQLWVRLGPSLHFLYDNFKLDDYQNGVNLYRKLLNALVTGDKEASRHCLQNVLQQNVATIKNQYFM	not soluble
DQVLKGAALVGHNVLVPSAQVAIDATGSAKGVVAATSAGFVNFEITDANGTFVKQLSVPASAAGEVSFAWDGTDANGNRMAAGKYGITATQTDTAGAKSKLATYVDAPVDSVTIGSDGLYLNLTGLGTSPLANVLRVS	soluble
DVQLQQSGPELKKPGETVKLSCKASGYTFTNFGLNWMKQAPGKGLKWMGWINTYTGESTYADDFKGRFAFSLETSASTAYLQINNVKNEDTATYFCARGFYYYGSRYFYFDYWGQGTTLTVSSAKTTAPSVYPLAPVCGDTTGSSVTLGCLVKGYFPEPVTLTWNSGSLSSGVHTFPAVLQSDLYTLSSSVTVTSSTWPSQSITCNVAHPASSTKVDKKIEPRGP	soluble
KNFPVLHLHREDFHDIRGTISLHLKTGFPMGFQMSVMCIGQLSMQTVVNSLGTAAVAGYTAASKADQLSVLVNNAMMTAISNYVAQNFGAGKRERIRQGVR	not soluble
KPGFQLGVTVDYEIGKHWMLMSGLSWLQNRSTMKMMDHMVTYFPKTEIKMNNLILPLKMGYNIRVSDKLSLIPSVGVYASYGFGAGNCSLDVIHQEGDNITTEPAKWKPLDGFSYKAGEPNNSGNLQAFRRWDYGGIVGMKAVIADHYTISFDYRVGIKKIQAQNGLRNSTFQFSVGYRF	not soluble
MSLKIAEMDSNSAVMAAQNEVIRGEIKDRDGNVLAKSTKSGDLTQKREYPYGEIYSHPIGYASGIYGNAGLEGAYSKELTTYENVSLKAFLKSFNLKKDFKERNESDKKVGNSIVTTLDTDLQKAAYAALGANRGAVVALDPKTGAVLASVSKPGFNPNNMKETYEIANNPNGNPKDAILVDRALNGQYPPGSTFKVVTLTSALENLPGVTERTFNDTGSINVGTKDLPNENGNAYGNISLRKALSVSSNVIFGGILGEELGNKKLRETAEKYGFNKDLYLGNLKAYSGSFPDRKTVDKGLIAYDAIGQGEVLSSPIEMAMVAATVANNGVRMEPYIVSKVVDKDGDTVKEFSSTKKDTVMSKEQAQIINEYMQGVAKDRINDNWGYFKGMNVAAKTGTAQVPDGNSHAWLIAFAPADDPKIAVATIVENGGSGSKVAAPVTARVMQAYFNEGHHHHHH	soluble
MNYVSLVLVSHSEEIAKGLKKLLKQIAPDVRIAAAGGSDGEIGTNALHIQEAIESVYSEKGTVVLFDLGSALLNAELALEMADRKERVRIADAPLVEGAYIAAVEAGLGKPLEEVVQACEAAKEMVKIAK	not soluble
